From patent publication US20240247042A1, “GLUCAGON LIKE PEPTIDE COMPOUNDS” (Novartis AG, priority 2021, published 2024)
Values belong to the molecule of their own block, whether it stands above or below them.

What was measured:
[1] = Efficacy study: body weight loss in DIO mice; format: in vivo, C57BL/6 mice; conditions: s.c., 120 μg/kg QD, Day 30
Protocol: Males 24-30 weeks of age were used in the studies (n=7/group). Animals were housed one per cage in a normal light cycle room, under an approved IACUC protocol. […] Compound(s) or vehicle were given QD or when indicated 03D (every 3 days). […] Body weight and food intake were measured daily.

[2] = Tolerability assessment: emesis and FI in obese monkeys; format: in vivo; conditions: single dose s.c. 30 μg/kg
Description: Efficacy was defined as a reduction in FI and BW. Tolerability, assessed as reduced and/or absence of emesis and retained interest in a selection of fruits and vegetables and peanuts as treats.

[3] = biological target: T1, mouse GLP1 receptor (mGLP1R) (Mus musculus, UniProt O35659); assay: Mouse GLP1R cAMP agonist assay; format: cell-based; conditions: percent of GLP1(7-36) EC100
T1 construct: host or cells: HEK293T CRE-Luc (called HEK293), clone C3
T1 sequence (O35659 22-463): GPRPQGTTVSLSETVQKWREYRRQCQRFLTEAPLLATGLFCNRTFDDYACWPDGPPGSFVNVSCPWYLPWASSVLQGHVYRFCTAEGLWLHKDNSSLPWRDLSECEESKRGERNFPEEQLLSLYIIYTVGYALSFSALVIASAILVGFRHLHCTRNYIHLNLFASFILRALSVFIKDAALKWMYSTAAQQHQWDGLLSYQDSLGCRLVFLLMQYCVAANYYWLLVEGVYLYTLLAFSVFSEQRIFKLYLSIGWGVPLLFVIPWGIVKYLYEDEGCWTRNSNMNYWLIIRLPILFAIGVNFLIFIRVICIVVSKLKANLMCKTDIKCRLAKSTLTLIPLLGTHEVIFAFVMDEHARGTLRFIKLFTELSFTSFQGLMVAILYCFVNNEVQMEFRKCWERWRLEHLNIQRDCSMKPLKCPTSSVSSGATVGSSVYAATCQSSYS
Protocol: Compounds described herein were tested in the following cellular assays that measures the intracellular cAMP concentration. The cAMP is generated by the activation of GLP1R. EC50 is defined as the concentration of the compound that leads to half of the maximum response (after baseline correction).
The following day, cells were transfected as follows. The DNA complex was prepared as 0.020 μg/μL by adding 37 μg of plasmid DNA encoding mouse GLP1R cDNA (GeneCopoeia, cat #EX-Mm23901-M67; NCBI Reference Sequence: NM_021332.2) in 1758 μL Opti-MEM solution. Then, 112 μL of FuGENE® HD reagent were added to that by mixing carefully. After 5-10 min incubation at RT, 850 μL of DNA complex per well were added to the cells, and mixed thoroughly.

[4] = Acute food intake study in DIO mice; format: in vivo, C57BL/6 mice; conditions: single s.c., 120 μg/kg
Protocol: Males 24-30 weeks of age were used in the studies. Animals were housed one per cage in a normal light cycle (6:00 am-6:00 pm lights on, otherwise lights off) room, under an approved IACUC protocol. […] At the start of the study, food weight was recorded and animals were subcutaneously dosed with a test compound.

human GLP1R [5] = biological target: T2, human GLP1R (Homo sapiens, UniProt P43220); assay: Human GLP1R DERET internalization assay; format: cell-based
human GLP1R [6] = biological target: T2, human GLP1R; assay: Human GLP1R DERET recycling assay; format: cell-based
[7] = biological target: cynomolgus GLP1 receptor (cynoGLP1R), on HEK293-cynoGLP1R F6 cells (cynomolgus) (UniProt F8V479); assay: cell-based or functional assay
[8] = biological target: human GLP1R (hGLP1R) with a Prolink tag, on CHO-hGLP1R-β-arrestin cells (human, UniProt P43220 24-463); assay: cell-based or functional assay
[9] = biological target: T3, human GLP1 receptor (hGLP1R) fused with a SNAP tag, on HEK293-SNAP-hGLP1R-GloSensor cells (human, UniProt P43220 24-463); assay: cell-based or functional assay
[10] = biological target: T4, mouse GLP1 receptor (mGLP1R), on HEK293-mGLP1R CRE-Luc (Clone C3) cells (mouse, UniProt O35659 22-463); assay: cell-based or functional assay
T4 sequence (looked up): T1 sequence (O35659 22-463)

[11] = biological target: T3, human GLP1 receptor (hGLP1R) fused with …; assay: cell-based or functional assay; remark: listed apart in the source
[12] = biological target: T3, human GLP1 receptor (hGLP1R) fused with …; assay: cell-based or functional assay; remark: listed apart in the source
[13] = biological target: cynomolgus GLP1 receptor (cynoGLP1R), on HEK293-cynoGLP1R F6 cells (cynomolgus, UniProt F8V479 24-463); assay: cell-based or functional assay

T2 sequence (P43220 24-463): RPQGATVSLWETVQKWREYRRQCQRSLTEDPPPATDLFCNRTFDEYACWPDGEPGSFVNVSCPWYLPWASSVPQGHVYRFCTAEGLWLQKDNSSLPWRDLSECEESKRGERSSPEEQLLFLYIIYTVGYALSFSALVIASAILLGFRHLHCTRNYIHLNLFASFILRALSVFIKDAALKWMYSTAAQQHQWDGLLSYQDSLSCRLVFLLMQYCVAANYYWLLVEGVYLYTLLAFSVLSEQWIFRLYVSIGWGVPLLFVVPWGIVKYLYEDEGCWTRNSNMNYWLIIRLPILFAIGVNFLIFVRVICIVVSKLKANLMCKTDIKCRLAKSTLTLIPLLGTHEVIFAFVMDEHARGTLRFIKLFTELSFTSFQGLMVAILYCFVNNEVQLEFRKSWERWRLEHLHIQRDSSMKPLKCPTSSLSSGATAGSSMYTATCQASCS

Molecule: semaglutide
Weight loss [1]: −17.8 ± 1.2 % baseline | FI reduction observed [2]: Yes | Emax mean [3]: 106% | FI @ 24 h [4]: −86 ± 1 % baseline | Emax mean (human GLP1R [5]): 91% | Receptor recycled mean (human GLP1R [6]): 64% | T1/2 mean (human GLP1R [6]): 1.677 h

cynoGLP1R cAMP assay (HTRF): EC50 mean [7]: 0.0217 nM | cynoGLP1R cAMP assay (HTRF): Emax mean, % of GLP1(7-36) [7]: 100%
Molecule: GLP1(7-36) peptide (from UniProt P01275 98-127) (ligand)

cynoGLP1R cAMP assay (HTRF): EC50 mean [7]: 0.0491 nM
Molecule: semaglutide acetate salt (peptide)

β-arrestin recruitment (PathHunter): EC50 mean [8]: 70 nM | hGLP1R cAMP assay (GloSensor): EC50 mean [9]: 0.00573 nM | mGLP1R cAMP assay (HTRF): EC50 mean [10]: 0.034 nM
B1: Compound 6 (peptide)
peptide: HXEGTFTSDVSSYLEGQAAKEFIAWLVRGRG
modifications: Aib at position 8 (GLP-1 numbering); side-chain NH of the Lys residue acylated, via a PEG24 linker, with the 11-carbamoyl-henicosane-1,11,21-tricarboxylic acid moiety (from NHS ester Intermediate 29)

β-arrestin recruitment (PathHunter): EC50 mean [8]: 178 nM | receptor internalization (DERET): EC50 mean [11]: 367 nM
B2: Compound 7 (peptide)
peptide: B1 peptide
modifications: Aib at position 8 (GLP-1 numbering); side-chain NH of the Lys residue acylated, via a PEG24 linker, with the 12-carbamoyl-tricosane-1,12,23-tricarboxylic acid moiety (from NHS ester Intermediate 36)

hGLP1R cAMP assay (GloSensor): EC50 mean [9]: 0.105 nM
B3: Compound 8 (peptide)
peptide: B1 peptide
modifications: Aib at position 8 (GLP-1 numbering); side-chain NH of the Lys residue acylated, via a PEG24 linker, with the 14-carbamoyl-heptacosane-1,14,27-tricarboxylic acid moiety (from NHS ester Intermediate 43)

receptor recycling (DERET, after Exendin 9-39): T1/2 mean [12]: 2.25 h | cynoGLP1R cAMP assay (HTRF): EC50 mean [13]: 0.577 nM | cynoGLP1R cAMP assay (HTRF): Emax mean, % of GLP1(7-36) [13]: 103%
B4: Compound 5 (peptide)
peptide: B1 peptide
modifications: Aib at position 8 (GLP-1 numbering); side-chain NH of the Lys residue acylated, via a PEG2 linker, with 2-undecyltridecanedioic acid (from NHS ester Intermediate 22)

β-arrestin recruitment (PathHunter): EC50 mean [8]: > 2000 nM | β-arrestin recruitment (PathHunter): Emax mean, % of GLP1(7-36) [8]: 37% | mGLP1R cAMP assay (HTRF): EC50 mean [10]: 0.686 nM | receptor internalization (DERET): Emax mean, % of GLP1(7-36) [11]: 22%
B5: Compound 9 (peptide)
peptide: B1 peptide
modifications: Aib at position 8 (GLP-1 numbering); side-chain NH of the Lys residue acylated, via a PEG24 linker, with the 15-carbamoyl-nonacosane-1,15,29-tricarboxylic acid moiety (from NHS ester Intermediate 50)

β-arrestin recruitment (PathHunter): EC50 mean [8]: 133 nM | receptor internalization (DERET): EC50 mean [11]: 331 nM
B6: Compound 2: Diastereomer 1 (peptide)
peptide: B1 peptide
modifications: Aib at position 8 (GLP-1 numbering); side-chain NH of the Lys residue acylated, via a PEG24 linker, with (S)-2-undecyltridecanedioic acid (from NHS ester Intermediate 15A, S-enantiomer)

receptor internalization (DERET): EC50 mean [11]: 372 nM
B7: Compound 3: Diastereomer 2 (peptide)
peptide: B1 peptide
modifications: Aib at position 8 (GLP-1 numbering); side-chain NH of the Lys residue acylated, via a PEG24 linker, with (R)-2-undecyltridecanedioic acid (from NHS ester Intermediate 15B, R-enantiomer)

β-arrestin recruitment (PathHunter): EC50 mean [8]: 235 nM | mGLP1R cAMP assay (HTRF): EC50 mean [10]: 0.428 nM
B8: Compound 4 (peptide)
peptide: B1 peptide
modifications: Aib at position 8 (GLP-1 numbering); side-chain NH of the Lys residue acylated, via a PEG8 linker, with 2-undecyltridecanedioic acid (from NHS ester Intermediate 19)

β-arrestin recruitment (PathHunter): EC50 mean [8]: 192 nM | hGLP1R cAMP assay (GloSensor): Emax mean, % of GLP1(7-36) [9]: 105%
B9: Compound 1 (Diastereomeric Mixture) (peptide)
peptide: B1 peptide
modifications: Aib at position 8 (GLP-1 numbering); side-chain NH of the Lys residue acylated, via a PEG24 linker, with 2-undecyltridecanedioic acid (from NHS ester Intermediate 6); diastereomeric mixture at the quaternary carbon of the fatty acid
